Tests used:
[1] = tested on: peripheral blood mononuclear cells (PBMC); assay: In Vitro PBMC Studies: Percent modification - G-CSF expression; assay type: cell-based, human; details: 480 ng mRNA
Experimental: 480 ng of G-CSF mRNA modified with 5-methylcytosine (5mC) and pseudouridine (pseudoU) or unmodified G-CSF mRNA was transfected with 0.4 uL of Lipofectamine 2000 into peripheral blood mononuclear cells (PBMC) from three normal blood donors (D1, D2, and D3). […] The supernatant was harvested and run by ELISA 22 hours after transfection to determine the protein expression. The expression of IFN-alpha and TNF-alpha may be a secondary effect from the transfection of the G-CSF mRNA.

human PBMC = assay: Cytokine Study: PBMC - G-CSF production (G-CSF ELISA); assay type: cell-based; details: mRNA with Lipofectamine 2000
Experimental: (§1) The plates were then incubated at 37° C.
(§2) Each condition was done in duplicate.
In the G-CSF ELISA, background signal from the Lipofectamine 2000 (LF2000) untreated condition was subtracted at each time point.

[2] = tested on: human PBMC, interferon-alpha (IFN-alpha); assay: Cytokine Study: PBMC - IFN-alpha production (ELISA)
Experimental: as §1, §2

[3] = tested on: human PBMC, tumor necrosis factor alpha (TNF-alpha)
Experimental: 50 mL of human blood from two donors was received from Research Blood Components (lots KP30928 and KP30931) in sodium heparin tubes. For each donor, the blood was pooled and diluted to 70 mL with DPBS (SAFC Bioscience 59331C, lot 071M8408) and split evenly between two 50 mL conical tubes. 10 mL of Ficoll Paque (GE Healthcare 17-5442-03, lot 10074400) was gently dispensed below the blood layer. The tubes were centrifuged at 2000 rpm for 30 minutes with low acceleration and braking. The tubes were removed and the buffy coat PBMC layers were gently transferred to a fresh 50 mL conical and washed with DPBS. The tubes were centrifuged at 1450 rpm for 10 minutes.
The supernatant was aspirated and the PBMC pellets were resuspended and washed in 50 mL of DPBS. The tubes were centrifuged at 1250 rpm for 10 minutes. This wash step was repeated, and the PBMC pellets were resuspended in 19 mL of Optimem I (Gibco 11058, lot 1072088) and counted. The cell suspensions were adjusted to a concentration of 3.0×10̂6 cells/mL live cells.
These cells were then plated on five 96 well tissue culture treated round bottom plates (Costar 3799) per donor at 50 uL per well. Within 30 minutes, transfection mixtures were added to each well at a volume of 50 uL per well. After 4 hours post transfection, the media was supplemented with 10 uL of Fetal Bovine Serum (Gibco 10082, lot 1012368)
The plate containing the material to be transfected was incubated for 20 minutes. The transfection mixtures were then transferred to each of the human PBMC plates at 50 uL per well. The plates were then incubated at 37° C. At 2, 4, 8, 20, and 44 hours each plate was removed from the incubator, and the supernatants were frozen.
The ability of unmodified and modified mRNA to produce the encoded protein was assessed (G-CSF production) over time as was the ability of the mRNA to trigger innate immune recognition as measured by interferon-alpha production.

[4] = Stability of Modified RNA - storage, gel electrophoresis; assay type: physicochemical
Experimental: Stability experiments were conducted to obtain a better understanding of storage conditions to retain the integrity of modified RNA. […] After the mRNA had been stored for 0 hours, 2 hours, 6 hours, 24 hours, 48 hours, 5 days and 14 days, the mRNA was analyzed by gel electrophoresis using a Bio-Rad EXPERION™ system. The modified, unmodified and lipoplexed G-CSF mRNA was also stored in RNASTABLE® (Biomatrica, Inc. San Diego, Calif.) at 40° C. or water at −80° C. or 40° C. for 35 days before being analyzed by gel electrophoresis.

[5] = tested on: Human primary foreskin fibroblasts (BJ fibroblasts); assay: Cell Viability in BJ Fibroblasts (CELL TITER GLO, repeated transfection); assay type: cell-based; details: normalized to untreated = 100%
Experimental: Control samples of Lipofectamine 2000 (LF2000) and unmodified G-CSF mRNA were also transfected. The modified mRNA or control samples were transfected daily for 4 days. The viability of the cells after transfection was evaluated 6 hours and 24 hours after the first transfection (Ti, 6 hours or T1, 24 hours), and 24 hours after the second (T2, 24 hours) and fourth transfection (T4, 24 hours).
To determine cell viability, the culture medium was completely removed and the cells were washed once with 600 ul of sterile PBS without Ca2+/Mg2+ (Gibco/Life Technologies, Manassas, Va.) in order to rinse-off loosely attached cells. PBS was removed and discarded. The cleaned fibroblasts in each well were treated with 220 ul of a diluted CELL TITER GLO® (Promega, catalog #G7570) stock solution (the CELL TITER GLO® stock solution was further diluted 1:1 with an equal amount of sterile PBS). A sterile pipet tip was used to scratch the cells off the plate and accelerate the lysis process.
For two time intervals, T1, 24 hours and T2, 24 hours, an alternative protocol was applied. Cells were washed with PBS, as described above, and subsequently trypsinized with Trypsin/EDTA solution (Gibco/Life Technologies, Manassas, Va.). Cells were detached and collected in 500 ul of medium containing trypsin inhibitor. Cells were harvested by centrifugation at 1200 rcf for 5 minutes. The cell pellet was resuspended in 500 ul PBS. This cell suspension was kept on ice, and 100 ul of this was combined with 100 ul of undiluted Cell Titer Glo solution.
All of the CELL TITER GLO® lysates were then incubated at room temperature for 20 minutes. 20 ul of the lysates were transferred to a white opaque polystyrene 96-well plate (Corning, Manassas, Va.) and combined with 100 ul diluted CELL TITER GLO® solution. The plate reader used was from BioTek Synergy H1 (BioTek, Winooski, Vt.) and the absolute values were normalized to signal of the untreated BJ Fibroblasts to 100% cell vitality.

female BALB/C mice = assay: In Vivo Detection of Innate Immune Response Study - human G-CSF protein in serum; details: human G-CSF in mouse serum; I.M.; 8 hours after dosing
Experimental: Blood is collected at 8 hours after dosing.

[6] = tested on: female BALB/C mice, interferon-alpha (IFN-alpha); assay: In Vivo Detection of Innate Immune Response Study - mouse IFN-alpha in serum
Experimental: Blood is collected at 8 hours after dosing. Using ELISA the protein levels of G-CSF, TNF-alpha and IFN-alpha is determined by ELISA.

Luciferase: control mRNA encoding luciferase (SEQ ID NO: 3), Cap 1, fully modified with 5-methylcytosine and pseudouridine [reference compound]
G-CSF Expression ([1]; PBMC donor D1, 0.4 uL Lipofectamine 2000, ELISA 22 hours after transfection): 90.2 pg/mL
G-CSF Expression ([1]; PBMC donor D2, 22 hours after transfection): 0.0 pg/mL
G-CSF Expression ([1]; PBMC donor D3, 22 hours after transfection): 22.1 pg/mL
G-CSF: 3 Donor Average (human PBMC): 18 pg/mL

B1: G-CSF 5-methyl cytosine/pseudouridine: mRNA encoding human G-CSF (SEQ ID NO: 1), Cap 1, 100% substitution with 5-methyl cytidine and pseudouridine (nucleic acid, listed as Homo Sapiens)
chain: GGGAAAUAAGAGAGAAAAGAAGAGUAAGAAGAAAUAUAAGAGCCACCAUGGCCGGUCCCGCGACCCAAAGCCCCAUGAAACUUAUGGCCCUGCAGUUGCUGCUUUGGCACUCGGCCCUCUGGACAGUCCAAGAAGCGACUCCUCUCGGACCUGCCUCAUCGUUGCCGCAGUCAUUCCUUUUGAAGUGUCUGGAGCAGGUGCGAAAGAUUCAGGGCGAUGGAGCCGCACUCCAAGAGAAGCUCUGCGCGACAUACAAACUUUGCCAUCCCGAGGAGCUCGUACUGCUCGGGCACAGCUUGGGGAUUCCCUGGGCUCCUCUCUCGUCCUGUCCGUCGCAGGCUUUGCAGUUGGCAGGGUGCCUUUCCCAGCUCCACUCCGGUUUGUUCUUGUAUCAGGGACUGCUGCAAGCCCUUGAGGGAAUCUCGCCAGAAUUGGGCCCGACGCUGGACACGUUGCAGCUCGACGUGGCGGAUUUCGCAACAACCAUCUGGCAGCAGAUGGAGGAACUGGGGAUGGCACCCGCGCUGCAGCCCACGCAGGGGGCAAUGCCGGCCUUUGCGUCCGCGUUUCAGCGCAGGGCGGGUGGAGUCCUCGUAGCGAGCCACCUUCAAUCAUUUUUGGAAGUCUCGUACCGGGUGCUGAGACAUCUUGCGCAGCCGUGAAGCGCUGCCUUCUGCGGGGCUUGCCUUCUGGCCAUGCCCUUCUUCUCUCCCUUGCACCUGUACCUCUUGGUCUUUGAAUAAAGCCUGAGUAGGAAG
modifications: Cap1; 5-methylcytidine and pseudouridine
IFN-alpha production (in words) [2]: low but detectable levels
IFN-alpha: 3 Donor Average [2]: 141 pg/mL
G-CSF/IFN-alpha (ratio), PC Ratio ([2]; human PBMC, 3 donor averages): 34
G-CSF: 3 Donor Average (human PBMC): 4742 pg/mL
TNF-alpha production (in words) [3]: low but detectable levels
TNF-alpha: 3 Donor Average [3]: 31 pg/mL
G-CSF/TNF-alpha (ratio), PC Ratio ([3]; human PBMC, 3 donor averages): 153

B2: unmodified G-CSF: Unmodified G-CSF mRNA (SEQ ID NO: 1, Cap1), storage stability (nucleic acid, listed as Homo Sapiens)
chain: B1 chain
modifications: Cap1
stable out to ([4]; stored at 25° C.): 48 h
stable out to ([4]; stored at 37° C.): 6 h
stable out to ([4]; stored at 50° C.): 2 h
Percent Viability T1, 6 hours ([5]; T1, 6 hours): 101%
Percent Viability T1, 24 hours ([5]; T1, 24 hours): 72%
Percent Viability T2, 24 hours ([5]; T2, 24 hours): 74%
Percent Viability T4, 24 hours ([5]; T4, 24 hours): 42%

B3: GCSF mRNA unmod: G-CSF mRNA (SEQ ID NO: 1) unmodified, 5′ cap of Cap1 (nucleic acid, listed as Homo Sapiens)
chain: B1 chain
modifications: Cap1
G-CSF protein (female BALB/C mice): 605.6 pg/mL
PC Ratio ([6]; G-CSF protein / IFN-alpha in mouse serum): 9
IFN-alpha expression ([6]; mouse IFN-alpha in serum, I.M., 8 hours after dosing): 67.01 pg/mL

Reference: patent US20130123481A1, “MODIFIED NUCLEOSIDES, NUCLEOTIDES, AND NUCLEIC ACIDS, AND USES THEREOF” (MODERNA THERAPEUTICS, priority 2011, published 2013)
